Reference: PMC4141209

Target: TlLhpI (OCD-like protein / Δ1-pyrroline-2-carboxylate reductase from Thermococcus litoralis DSM 5473) (Thermococcus litoralis DSM 5473)
Experiment: SEC

TlLhpI (OCD-like protein / Δ1-pyrroline-2-carboxylate reductase from Thermococcus litoralis DSM 5473) (enzyme)
stoichiometry N: 2
